In US12156889B2, “Methods of administering mesenchymal stem cells activated by cytokines for enhancing immunosuppression” (Rutgers, The State University of New Jersey, priority 2012, dated 2024):
“Also recorded” adds a separate entry of the source.

Tested on: CD4+ T cell blasts
Test: T cell blast proliferation in co-culture with MSCs (3H-thymidine incorporation)
Type: cell-based, mouse
Method: FIG. 1. is a graph showing that immunosuppression by MSCs is induced by proinflammatory cytokines. Cloned MSCs were supplemented with the indicated combinations of recombinant cytokines (20 ng/ml each) for 8 hours, then co-cultured with CD4+ T cell blasts at a 1:20 ratio (MSC:T cells), and proliferation assessed after an additional 8 hours. Values represent means±SD of five wells from a representative of three experiments with different clones. * p<0.001.
FIGS. 9A, 9B, 9C, 9D, 9E, 9F and 9G. (FIG. 9A). Cloned MSCs were first treated with the indicated combinations of recombinant cytokines IFNγ, TNFα, IL-17A (2 ng/ml each) for 12 hr, then cocultured with CD4^+ T cell blasts at a 1:20 ratio (MSC:T cells), and proliferation was assessed by 3H-thymidine incorporation after an additional 12 hr. (FIG. 9B). The mRNA expression of IL-17 receptor family members in MSCs or Raw 264.7 (Macrophages) were examined by RT-PCR. NC: No RT. (FIG. 9C). Surface expression of IL-17RA was detected by immunofluoresence or flow cytometry in cloned MSCs. (FIGS. 9D and 9E). MSCs were first treated with IFNγ and TNFα with or without IL-17A (10 ng/ml), IFNγ and TNFα were supplemented at different cytokine concentrations, for 12 hr, and then cocultured with CD4^+ T cell blasts (FIG. 9D) or T cell hybridoma A1.1 cells (FIG. 9E) at a ratio of 1:20 for 12 hr. T cell proliferation was measured by 3H-Tdr incorporation. (FIG. 9F). MSCs were first treated with IFNγ and TNFα (2 ng/ml) with graded concentrations of IL-17A, for 12 hr, and then cocultured with T cell hybridoma A1.1 cells at a ratio of 1:10 for 12 hr. T cell proliferation was measured by 3H-thymidine incorporation. (FIG. 9G). MSCs were cocultured with fresh C57BL/6 splenocytes plus anti-CD3, anti-CD28, and antibodies against IL-17A, at a 1:20 or 1:40 ratio (MSCs:splenocytes), for 48 hr, and then cell proliferation was assessed by 3H-thymidine incorporation. Proliferation values represent means±SEM of three wells from a representative of three experiments.
T cell blasts were generated from CD4^+ T cells purified by negative selection with […] T cell subset isolation kits (R&D Systems). Cells (1×10^6 cells/ml) were activated by plastic-bound anti-CD3 and soluble anti-CD 28 for 48 hours, then cultured with IL-2 (200 U/ml) alone for 48 hours. All T cell cultures were maintained in RPMI-1640 medium supplemented with 10% heat-inactivated FBS, 2 mM glutamine, 100 U/ml penicillin, 100 μ·g/ml streptomycin, and […] (complete medium).
Since most reported studies of immunosuppression by MSCs are based on their effects on T cell proliferation and cytokine production, the effect of MSCs was first examined on the IL-2-driven proliferation of T cell blasts. Fresh CD4^+ T cell blasts were generated from splenocytes by activation with anti-CD3 followed by expansion with IL-2 for several days (Devadas, et al. (2006) Immunity 25:237-247; Radvanyi, et al. (1996) Cell Immunol. 170:260-273). T cell blasts were added at a 1:20 ratio (MSC:T cells) along with IL-2 (200 U/ml). Cell proliferation was assessed by ^3H-Tdr incorporation after 8 hours. […] MSCs also had no effect on the proliferation of T hybridoma A1.1 cells. These T cells blasts and T hybridoma cells, however, produce no cytokines unless reactivated through the TCR (Fotedar, et al. (1985) J. Immunol. 135(5):3028-33). Thus, in the absence of T cell cytokines, MSCs were unable to suppress T cell proliferation.
The effect of IFNγ was then tested directly by adding isolated recombinant IFNγ (20 ng/ml) instead of activated splenocyte supernatant to the mixed co-cultures of MSC+ T cell blasts or MSC+A1.1 cells. […] Therefore, induction of the immunosuppressive function of MSCs by anti-CD3-activated splenocyte supernatant may be due to IFNγ acting in concert with either TNFα; IL-1α; or IL-1β on the MSCs. […]

B1: IL-17A: recombinant mouse interleukin 17A (protein)
chain: AAIIPQSSACPNTEAKDFLQNVKVNLKVFNSLGAKVSSRRPSDYLNRSTSPWTLHRNEDPDRYPSVIWEAQCRHQRCVNAEGKLDHHMNSVLIQQEILVLKREPESCPFTFRVEKMLVGVGCTCVASIVRQAA
T cell proliferation after MSC treatment with low-concentration cytokines (2 ng/ml each, 12 hr, then 1:20 MSC:T cells): cannot induce immunosuppression; also recorded: markedly enhanced | IFNγ and TNFα concentrations (as low as) at which IL-17A enhances the immunosuppressive effect of MSCs (10 ng/ml IL-17A, CD4+ T cell blasts or A1.1): 1 to 2 ng/mL | immunosuppression at higher concentrations of IFNγ and TNFα (IFNγ and TNFα 10-20 ng/ml): still improved immunosuppression
